In patent US11492610B2, “Sample multiplexing for single-cell RNA sequencing” (California Institute of Technology, priority 2018, dated 2022):

Test system: mouse neural stem cells (NSCs)
Assay: 96-plex scRNA-seq perturbation experiment (96-sample growth factor screen)
Assay type: cell-based
Protocol: Neural stem cells for 96-sample growth factor screen were cultured according to the following protocol after previously described cell culture plate reached ˜80% confluence: Stock solutions (10×) were prepared in Neural Stem Cell Basal Medium for every factor and at every concentration used: EGF+bFGF at 200 ng/mL, 40 ng/mL, 8 ng/mL, 1.6 ng/mL; BMP4 (Peprotech) at 200 ng/mL, 40 ng/mL, 8 ng/mL, 0 ng/mL; Retinoic Acid (Sigma) at 10 μM, 2 μM, 0 μM; Scriptaid (Selleckchem)/Decitabine (Selleckchem) at 1 μM/5 μM, 0.2 μM/1 μM, 0 μM/0 μM; Heparin at 20 μg/mL+Penicillin-Streptomycin at 10%. 20 μL each of EGF/bFGF, BMP4, Retinoic acid or Scriptaid/Decitabine, and Heparin/Penicillin-Streptomycin were added to each well of a poly-L-ornithine and laminin coated 96-well plate for a total of 80 μL.
NSCs previously plated on 100 mm culture plates until ˜80% confluent were dissociated by incubation in 4 mL of ESGRO Complete Accutase (Millipore) for 2 minutes at 37° C. After incubation, the Accutase and NSCs were transferred to a 15 mL conical tube and centrifuged at room temperature for 2.5 minutes at 200×g. Supernatant was removed and the cell pellet was resuspended in 2 mL Neural Stem Cell Basal Medium. Centrifugation and medium replacement were repeated one more time and cell concentration was counted on the Countess II Automated Cell Counter. The cell suspension was then diluted with additional Neural Stem Cell Basal Medium to a concentration of 18.3 cells/μL. From this stock 120 μL was added to each well of the 96-well plate for a total of ˜2,200 cells/well. Supplemented media for every well in the 96-well plate was replaced every other day during the 5-day incubation.
Before NSC dissociation and fixation, 80 μL of ice-cold methanol was added to each well of twelve 8-well PCR strips on an ice block. After 5 days in culture, all media in the 96-well plate were removed and the cells washed three times with 150 μL of Neural Stem Cell Basal Medium. Any remaining media were removed and replaced with 20 μL of Accutase and incubated at 37° C. for 2 minutes with gentle pipetting to help break cell clumps. […]
Cells for the 96-sample perturbation experiment were prepared as described above. […] Sequencing libraries were prepared as described, with sample tag libraries sequenced on two lanes of Illumina MiSeq using MiSeq v3 150 cycle kits (26×98 bp reads), and cDNA libraries pooled and sequenced on Illumina HiSeq 4000 using two HiSeq 3000/4000 SBS 300 cycle kits (2×150 bp reads).
For the 96-sample perturbation experiment, the ScanPy Python package (version 1.0.4) was used to process the filtered genes×cells matrix produced by cellranger. […] The per-cell read counts were regressed out and the data scaled to unit variance. […]

B1: BMP4: bone morphogenic protein 4 (BMP4), Peprotech (protein, UniProt P12644 293-408, looked up)
Bone morphogenetic protein 4: SPKHHSQRARKKNKNCRRHSLYVDFSDVGWNDWIVAPPGYQAFYCHGDCPFPLADHLNSTNHAIVQTLVNSVNSSIPKACCVPTELSAISMLYLDEYDKVVLKNYQEMVVEGCGCR
- cell proliferation / phenotype across the perturbation array (Example 2 analysis, FIG. 3E, 5A): high proliferation under low BMP4 conditions
- effect on cell populations, PCA of relative cluster abundance × sample matrix (Example 2 analysis, FIG. 5B): graded effect
- cell proliferation / phenotype across the perturbation array (Example 5 re-analysis (UMAP), FIG. 24, 27): high proliferation under low BMP4 conditions
- effect on cell populations, PCA of relative cluster abundance × sample matrix (Example 5 re-analysis (UMAP), FIG. 24B): graded effect
